For one assay, the target named is T1, hIL-2Rβγ (human, UniProt P14784 27-239; P31785 23-254).
T1 construct: Soluble beta/gamma heterodimer used as SPR analyte
T1 sequence (looked up) 1: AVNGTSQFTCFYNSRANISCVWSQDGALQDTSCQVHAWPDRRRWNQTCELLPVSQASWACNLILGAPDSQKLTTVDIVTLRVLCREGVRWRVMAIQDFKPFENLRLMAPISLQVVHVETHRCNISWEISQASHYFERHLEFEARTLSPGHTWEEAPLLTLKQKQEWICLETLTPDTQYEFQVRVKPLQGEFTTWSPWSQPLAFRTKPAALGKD
T1 sequence (looked up) 2: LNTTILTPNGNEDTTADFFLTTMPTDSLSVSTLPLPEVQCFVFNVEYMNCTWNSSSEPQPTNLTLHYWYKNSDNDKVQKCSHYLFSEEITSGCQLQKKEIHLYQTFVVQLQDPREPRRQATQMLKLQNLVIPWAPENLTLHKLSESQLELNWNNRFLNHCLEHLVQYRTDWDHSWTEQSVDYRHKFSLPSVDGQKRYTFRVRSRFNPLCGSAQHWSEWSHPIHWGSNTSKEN
Description: SPR, Biacore T200; biotinylated CD73 on SA chip, binder bound to CD73, hIL-2Rβγ as analyte, single cycle kinetics. Here is the method:
(§1) To quantitatively analyze the binding affinities to CD73 and IL-2 receptors of […] and GI-108B1, in which the anti-CD73 antibody that specifically binds to CD73 was linked to the IL-2 variant, and Aldesleukin (trade name: PROLEUKIN®, Novartis), the binding affinities were measured using SPR (surface plasmon resonance). Using a BIACORE™ T200 instrument (Cytiva), the binding affinities of GI-108A1 (AHF10240), GI-108A1 (AHP04167) and GI-108B1 to hCD73, cyCD73, mCD73, hIL-2Rα, hIL-2Rβ, and hIL-2Rβγ were analyzed. Oleclumab (Astrazeneca), produced on order from Ybiologics, Inc., was used as a control.
(§2) To analyze the binding affinity to hIL-2Ra, hIL-2Ra was […] immobilized on Sensor Chip CM5 using a His capture kit (Cytiva, USA). Each of GI-108A1 (AHF10240), GI-108A1 (AHP04167), GI-108B1 and PROLEUKIN®, diluted in HBS-EP+ buffer, was then applied for 1 minute, followed by analysis of association and dissociation. In addition, the binding affinities to hIL-2RB and hIL-2Rβγ were measured by a three-step analysis method including treating Sensor Chip SA (Cytiva, USA) with biotinylated CD73, and then binding each of GI-108A1 (AHF10240), GI-108A1 (AHP04167), GI-108B1 and PROLEUKIN® to CD73, followed by treatment with each of hIL-2RB and hIL-2Rβγ diluted in HBS-P+ buffer (Cytiva, USA). For hIL-2RB, association was performed for 1 minute and dissociation for 1 minute, and for hIL-2Rβγ, association was performed for 5 minutes and dissociation for 2 hours at each concentration, in a single cycle kinetics analysis. Each sensorgram was normalized and subtracted compared to a blank cell to calculate affinity.

The target in a further assay is T2, hCD73 (human, UniProt P21589 27-549, limits assumed).
T2 construct: also called human CD73; recombinant human CD73 protein
T2 sequence: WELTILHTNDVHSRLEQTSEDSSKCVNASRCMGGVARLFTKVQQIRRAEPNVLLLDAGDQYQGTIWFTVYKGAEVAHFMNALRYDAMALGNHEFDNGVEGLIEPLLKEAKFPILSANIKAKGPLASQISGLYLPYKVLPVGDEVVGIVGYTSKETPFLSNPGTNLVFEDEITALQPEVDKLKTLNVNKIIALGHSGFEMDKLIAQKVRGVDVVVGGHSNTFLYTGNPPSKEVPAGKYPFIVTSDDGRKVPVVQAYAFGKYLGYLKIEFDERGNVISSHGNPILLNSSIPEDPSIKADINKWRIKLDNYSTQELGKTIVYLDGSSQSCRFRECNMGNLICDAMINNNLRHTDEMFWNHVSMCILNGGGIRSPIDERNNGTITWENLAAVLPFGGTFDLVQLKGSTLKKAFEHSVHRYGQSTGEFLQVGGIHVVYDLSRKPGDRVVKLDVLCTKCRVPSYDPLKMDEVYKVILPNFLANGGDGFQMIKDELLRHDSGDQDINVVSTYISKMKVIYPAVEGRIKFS
Description: SPR, Biacore T200; binder captured on CM5 chip by human antibody capture kit, CD73 as analyte. Here is the method: as §1
(§3) Specifically, to analyze the binding affinities to hCD73, cyCD73, and mCD73, each of GI-108A1 (AHF10240), GI-108A1 (AHP04167), GI-108B1, and Oleclumab was diluted in HBS-EP+ buffer (Cytiva, USA) and reversibly immobilized on Sensor Chip CM5 (Cytiva, USA) using a human antibody capture kit (Cytiva, USA). CD73 was diluted in HBS-EP+ buffer and then analyzed for association and dissociation at a flow rate of 30 μL/min for 5 minutes each.

The target in a further assay is T3, mCD73 (UniProt Q61503 29-551, limits assumed).
T3 construct: Species told only by the prefix 'm'
T3 sequence (looked up): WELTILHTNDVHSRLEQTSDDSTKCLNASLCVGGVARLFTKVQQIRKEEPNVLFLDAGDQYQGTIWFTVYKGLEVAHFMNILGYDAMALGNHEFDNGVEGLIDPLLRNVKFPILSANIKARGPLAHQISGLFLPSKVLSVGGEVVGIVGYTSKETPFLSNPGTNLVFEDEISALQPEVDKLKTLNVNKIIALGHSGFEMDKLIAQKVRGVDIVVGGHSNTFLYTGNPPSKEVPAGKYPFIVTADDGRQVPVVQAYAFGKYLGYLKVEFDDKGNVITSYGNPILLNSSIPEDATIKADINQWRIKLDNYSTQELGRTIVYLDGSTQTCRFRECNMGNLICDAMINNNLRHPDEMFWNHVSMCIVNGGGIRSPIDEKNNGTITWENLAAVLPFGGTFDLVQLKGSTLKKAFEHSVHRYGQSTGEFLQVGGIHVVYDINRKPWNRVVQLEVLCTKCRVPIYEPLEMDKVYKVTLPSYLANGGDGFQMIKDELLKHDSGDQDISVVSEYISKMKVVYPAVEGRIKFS
The assay is described as above. The procedure:
as §1, §3

The next assay addresses T4, cyCD73.
T4 construct: Species told only by the prefix 'cy'
The assay is described as above. Here is the method: as §1, §3

The target of a further assay is T5, hIL-2Rβ (human, UniProt P14784 27-239).
T5 construct: also called hIL-2RB
T5 sequence (looked up): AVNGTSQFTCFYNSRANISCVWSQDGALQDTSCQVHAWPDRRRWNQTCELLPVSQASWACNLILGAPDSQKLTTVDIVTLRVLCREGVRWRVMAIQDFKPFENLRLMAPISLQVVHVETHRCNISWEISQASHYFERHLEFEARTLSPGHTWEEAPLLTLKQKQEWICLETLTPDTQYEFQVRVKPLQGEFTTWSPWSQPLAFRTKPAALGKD
In words: SPR, Biacore T200; biotinylated CD73 on SA chip, binder bound to CD73, hIL-2Rβ as analyte. Here is the method:
as §1, §2
(SPR reads the build-up and loss of mass on a sensor chip optically.)

By Kd is commonly meant a measure of binding affinity in units of concentration. Read a high Kd as a looser complex.

B1: GI-108A1 (AHP04167) (Anti-CD73 sdAb-hIgG4 Fc-hIL2v3 fusion protein dimer) (Fc fusion)
chain: EVQLVESGGGLVQAGGSLRLSCVVSGRTFSNYHMGWFRQAPGKEREFVAVIGRSGGPTYYADSVKGRFTISRDNAKNTVYLQMNSLKPEDTAVYYCAGDWRNSDSPSKLKPVYDYWGQGTQVTVSSGGGGSAESKYGPPCPPCPAPEAAGGPSVFLFPPKPKDQLMISRTPEVTCVVVDVSQEDPEVQFNWYVDGVEVHNAKTKPREEQFNSTYRVVSVLTVLHQDWLNGKEYKCKVSNKGLPSSIEKTISKAKGQPREPQVYTLPPSQEEMTKNQVSLTCLVKGFYPSDIAVEWESNGQPENNYKTTPPVLDSDGSFFLYSRLTVDKSRWQEGNVFSCSVLHEALHNHYTQKSLSLSLGGGGGSGGGGSGGGGSAPTSSSTKKTQLQLEHLLLDLQMILNGINNYKNPKLTAMLTAKFYMPKKATELKHLQCLERELKPLEEVLNLAQSKNFHLRPRDLISNINVIVLELKGSETTFMCEYADETATIVEFLNRWITFCQSIISTLT
notes: Homodimer through hinge cysteines
As for B1, the Kd with hIL-2Rβγ was 0.327 nM; in the assay with hCD73, 0.088 nM; with mCD73 it was 3.45 nM; in the assay with cyCD73, 0.0708 nM; in the assay with hIL-2Rβ, 2070 nM.

B2: GI-108B1 (Anti-CD73 Ab-hIgG4 Fc-hIL2v3 fusion protein dimer) (antibody)
heavy: QVQLVQSGAEVKKPGSSVKVSCKFSGGSFTSYSFSWVRQAPGQGLEWMGRIIPVLTTTDYAQKFRDRVTITADESTSTAYMELSGLRSEDTAVYYCASGLKKNWYFDLWGRGALITVSSASTKGPSVFPLAPCSRSTSESTAALGCLVKDYFPEPVTVSWNSGALTSGVHTFPAVLQSSGLYSLSSVVTVPSSSLGTKTYTCNVDHKPSNTKVDKRVESKYGPPCPPCPAPEAAGGPSVFLFPPKPKDQLMISRTPEVTCVVVDVSQEDPEVQFNWYVDGVEVHNAKTKPREEQFNSTYRVVSVLTVLHQDWLNGKEYKCKVSNKGLPSSIEKTISKAKGQPREPQVYTLPPSQEEMTKNQVSLTCLVKGFYPSDIAVEWESNGQPENNYKTTPPVLDSDGSFFLYSRLTVDKSRWQEGNVFSCSVLHEALHNHYTQKSLSLSLGGGGGSGGGGSAPTSSSTKKTQLQLEHLLLDLQMILNGINNYKNPKLTAMLTAKFYMPKKATELKHLQCLERELKPLEEVLNLAQSKNFHLRPRDLISNINVIVLELKGSETTFMCEYADETATIVEFLNRWITFCQSIISTLT
light: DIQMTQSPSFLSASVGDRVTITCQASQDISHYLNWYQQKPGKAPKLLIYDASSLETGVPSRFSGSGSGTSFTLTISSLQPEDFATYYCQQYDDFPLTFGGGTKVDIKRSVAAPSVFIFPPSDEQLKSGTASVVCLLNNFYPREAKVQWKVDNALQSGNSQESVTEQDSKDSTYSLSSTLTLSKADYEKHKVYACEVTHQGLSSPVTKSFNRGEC
notes: IgG4 anti-CD73 antibody with the IL-2 variant fused to the C-terminus of each heavy chain; expressed in CHO cells, purified as a dimer
For the molecule B2, the Kd with hIL-2Rβγ worked out at 0.2 nM; with hCD73, 0.0894 nM; with cyCD73, 0.113 nM; in the assay with hIL-2Rβ, 2290 nM. Moreover, the binding result with mCD73 is given as “no binding”.

B3: GI-108A1 (AHF10240) (Anti-CD73 sdAb-hIgG4 Fc-hIL2v3 fusion protein dimer) (Fc fusion)
chain: EVQLVESGGGVVQTGGSLRLSCAASGRTFTHLAMGWFRQAPGKEREFVAAISNSGAGTQFADSVKGRFTISRDNAKNTVYLQMNSLKPEDTAVYYCAADWGTRDSPSKLNAVYDYWGRGTQVTVSSGGGGSAESKYGPPCPPCPAPEAAGGPSVFLFPPKPKDQLMISRTPEVTCVVVDVSQEDPEVQFNWYVDGVEVHNAKTKPREEQFNSTYRVVSVLTVLHQDWLNGKEYKCKVSNKGLPSSIEKTISKAKGQPREPQVYTLPPSQEEMTKNQVSLTCLVKGFYPSDIAVEWESNGQPENNYKTTPPVLDSDGSFFLYSRLTVDKSRWQEGNVFSCSVLHEALHNHYTQKSLSLSLGGGGGSGGGGSGGGGSAPTSSSTKKTQLQLEHLLLDLQMILNGINNYKNPKLTAMLTAKFYMPKKATELKHLQCLERELKPLEEVLNLAQSKNFHLRPRDLISNINVIVLELKGSETTFMCEYADETATIVEFLNRWITFCQSIISTLT
notes: as for B1
B3: the Kd in the assay with hIL-2Rβγ turned out to be 0.417 nM; with hCD73, 0.0502 nM; with mCD73, 2.62 nM; with cyCD73, 0.0841 nM; with hIL-2Rβ it was 2500 nM.

Source of the values: patent US20260061032A1 (GI INNOVATION, published 2026).
